Measured values: patent US20040096898A1 (MCMASTER UNIVERSITY, published 2004)
Ends that are not written are not given here.

Biological target: T1, PMCA398 (WVQKRPWLAESTPIYIQYFVKC) (conjugated through the terminus cysteine to keyhole limpet hemocyanin or ovalbumin)
T1 construct: Used as the KHLH conjugate (coated), as the free peptide (coated) and as the ovalbumin conjugate (eluting)
T1 peptide: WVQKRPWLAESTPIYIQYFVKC
Test: phage display panning on coated peptide conjugate
Description: The peptide fragment from the PMCA protein is preferably from an extracellular domain of the PMCA protein. […] The inventors screened an MEK13 random peptide phage display library (New England Biolabs, USA) and identified a phage that bound to the PMCA398-keyhole limpet hemocyanin conjugate and eluted with the PMCA398-ovalbumin. Specific details on the screening assay are provided in Example 1. A peptide containing the 12 amino add recognition sequence and a spacer ([…]-amide, SEQ.ID.NO.1) was synthesized and subsequently termed caloxin 2A1.
1.4.4. Screening Procedure for PMCA398: The peptide PMCA398 is extremely hydrophobic. Therefore, it was conjugated at a lower (5:1 molar) ratio to KHLH and ovalbumin. The peptide and its conjugates could be used only at low concentrations as very fine suspensions. […] Therefore, a strategy of sequentially increasing selectivity was used. First three rounds of panning were conducted at low stringency. […] The selected phage were pooled. […] After three high stringency washes, a differential time elution was performed—at each time point replacing the elutant with new PBS. The idea was that the most tightly bound phage would elute last. The elution was at room temperature for 1, 2, 4, 8, 16 and then 120 min. The phage from 16 and 120 min elutants gave excellent results in selectivity assays. […]

B1: phage displaying the 12 amino acid peptide VSNSNWPSFPSS (peptide)
peptide: VSNSNWPSFPSS
modifications: also: displayed as a fusion on M13KE phage
notes: also called phage from 16 and 120 min elutants; consensus clone of the PMCA398 screen; not shown: rest of the M13KE phage display fusion (PhD12 library); not described
- binding result: binds
